B1: Microtubule-associated protein 4: PKGIα substrate, phospho site T899 (protein, UniProt Q5M7W5 2-1057, looked up)
Microtubule-associated …: ADLSLVDALTEPPPEIEGEIKRDFMAALEAEPYDDIVGETVEKTEFIPLLDGDEKSGNSESKRKPCVDTSQVEDIPSSKPTLLANGDHGVEGNNTTGSPTDFLVENVDYEDYQNSQSWPEDASFCFQPQQVLDTNQADPFNVHHDDGLADLLFVSSGPTNASAFIEENNPLEDSYGVLPCDSFAPTAVVSQEWSVGAPDSPHSEPCVSPEVTIETAQPATELSKAVDLESVKEQLPAKALEMMAGQTTDAVPSKESEGSPDTDAAPGPDTDVTLTKDIEESSSPDVISANVTQPFTESDMFLTQEMELLIGTEAAQVKDTMSSVEPDISSAKNTAPPTEEETVPGKDMTFPKEAETALPIEMDLAPPEDVALPKETELELAPAAGTAPLSETEVALAKDEEPSTGIPAAQEMLLSSETEVVLPSDSIMTLTKEVTVPLEAAGPLVSDMTAILETEMTLGGGTATPTETKLGKVKDMAPLPESEVALGKDVVTLPETKVTEFNNVTPLSEEEVASIKDVSPSPETETAKNADLHSGTELTLDNSMTPPSDPALPLETKVATVQIKDKETVQTQEELSEDSQLESVQLEGQSAVPPCTISPEPVKAADQKSTLPVDEGSPLEKLEQKETSGSQPPELCSGVSRQEEGKAAVGLTGNDIATPPNKELPPSPEKKAKPLATTQPAKTSTSKAKIQPTSLPKQPAPTTSGGLNKKPMSLASGSVPAAPHKRPAAATATARPSTLPARDLKPKPITETKVAEKRTSPSKPSSAPALRPGPKTTPTISKATSPSTLVSTGSSSRSPSTTLPKRPTTTKTEGKPADVKRMTAKSATADLSRSKTTSASSVKRNTTPTGATPPAGMASTRVKPMSAPCRSSVALSVDKKPTSTKPSSSAPRVSRLATTVSAPDLKSVRSKVGSTENMKHQPGGGRVQIQNKKVDISKVSSKCGSKANIKHKPGGGDVKIESQKLNFKEKAQAKVGSLDNVGHLPAGGTVKTEGGGSEAPPCPGPPAGEEPAIPEAAPDAGAPTSASGLSGHTTLSGGGDQREPQTLDSQIQETSI
modifications: phosphorylated at T899
B2: Matrin-3: PKGIα substrate, phospho site T150 (protein, UniProt P43244 2-845, looked up)
Matrin-3: SKSFQQSSLGRDSQGHGRDLSAAGIGLLAAATQSLSMPASLGRMNQGTARLASLMNLGMSSSLNQQGAHSALSSASTSSHNLQSIFNIGSRGPLPLSSQHRGDTDQASNILASFGLSARDLDELSRYPEDKITPENLPQILLQLKRRRTEEGPTLSYGRDGRSATREPPYRVPRDDWEEKRHFRRDSFDDRGPSLNPVLDYDHGSRSQESGYYDRMDYEDDRLRDGERCRDDSFFGETSHNYHKFDSEYERMGRGPGPLQERSLFEKKRGAPPSSNIEDFHGLLPKGYPHLCSICDLPVHSNKEWSQHINGASHSRRCQLLLEIYPEWNPDNDTGHTMGDPFMLQQSTNPAPGILGPPPPSFHLGGPAVGPRGNLGAGNGNLQGPRHMQKGRVETSRVVHIMDFQRGKNLRYQLLQLVEPFGVISNHLILNKINEAFIEMATTEDAQAAVDYYTTTPALVFGKPVRVHLSQKYKRIKKPEGKPDEKFDQKQELGRVIHLSNLPHSGYSDSAVLKLAEPYGKIKNYILMRMKSQAFIEMETREDAMAMVDHCLKKALWFQGRCVKVDLSEKYKKLVLRIPNRGIDLLKKDKSRKRSYSPDGKESPSDKKSKTDGAQKTENPAEGKEQEEKSGEDGEKDTKDDQTEQEPSMLLESEDELLVDEEEAAALIESGSSVGDETDLANLGDVSSDGKKEPSDKAVKKDASATSKKKLKKVDKIEELDQENEAALENGIKNEENTEPGAESAENADDPNKDASDNSDGQNDENKEDYTIPDEYRIGPYQPNVPGGIDYVIPKTGFYCKLCSLFYTNEEVAKNTHCSSLPHYQKLKKFLNKLAEERRQKKES
modifications: phosphorylated at T150
B3: Leucine-rich PPR motif-containing protein, mitochondrial: PKGIα substrate, phospho site S656 (protein, UniProt Q5SGE0 78-1392, looked up)
Leucine-rich PPR …: SGSQFDWALMRLDNSVRRTGRITKGLLQKVFESTCRSGSPGSNQALLLLRSCGSLLPELSLAERTEFAHKIWDKLQQLGTVYDVSHYNALLKVYLQNEYRFSPTDFLAKMEGANIQPNRVTYQRLIAAYCSVGDIEGASKILGFMKTRDLPITEAVFSALVTGHARAGDMESAENILTVMKQAGIEPGPDTYLALLNAHAEKGDIDHVKQILEKVEKSDHYFMDRDFLQIIVSFSKAGYPQYVSEILEKITYERRSIPDAMNLILLLVTEKLEDTAFQVLLALPLARDETSSSFGSFFLRHCVTMDTPAEKLIDYCKRLRDAKVHSSSLQFTLHCALQANKTALAKAVMEALRDEGFPIRTHYFWPLLVGHQKTKNVQGIIDILKIMKEMGVDPDQETYINYVFPCFGSVQSARAALQENKCLPKSTTFAQAEVRNEAINGNLQNILSFLESNALPFSFNSLRGSLILGFRRSMNIDLWSKITELLYKDDRYCQKPPGPTEAVGYFLYNLIDSMSDSEVQAKEERLRQYFHQLREMNVKVSENIYKGICNLLDNYHVPELIKDVKVLVDREKIDSRKTSQFTSSDLESTLEKLKAEGHPVGDPLKQLILLLCSEENMQKALEVKAKYESDMVIGGYAALINLCCRHDNAEDALNLKQEFDRLDPSAVLDTAKYVALVKVLGKHGRVQDAINILKEMKEKDVVIKDAAVLSFFHILNGAALRGEIETVKQLHEAIVTLGLAKPSSNISFPLVTVHLEKDDLPAALEASIACHEKYKVLPRIHDVLCKLIEKGETDLIQKAMDFVSQEQGEMSMLYDLFFAFLQTGNYKEAKKIIETPGIRARPTRLQWFCDRCIANNQVETLEKLVELTEKLFECDRDQMYYNLLKLYKISGDWQRADAVWNKMQEENLIPRERTLRLLAGILKTSNQEVPFDVPELWFGDDRSSLSSSSPSAGDTVTEKMLLSDCRLKKSKDAYNIFLKAEKQDVVFSSEAYSTLVGLLLSKDDFTRAMHVKDFAETHIKGFTLNGAASSLLIIAQVRRDYLKVALETLKAALDLEQVPSELAVTRLIQALALQGDVKSIETIQKMVKGLDAIELSRMVFINNIALAQMKNNEIDAAIENIEHMLASENQTVEHQYFGLSYLFRKVIEEQMEPALEKLSIMSERLANQFALYKPVTDLFLQLVDSGKVDEARALLERCGAIAEQTSILSVFCLRTSQKPKKAPVLKTLLELIPELRENDRVYSCSMKSYVADKDVASAKALYEHLTAKNMKLDDLFLKRYASLLKDVGEPVPFTEPPESFGFYIKQLKEARENPS
modifications: phosphorylated at S656
B4: Mitochondrial ribonuclease P protein 1: PKGIα substrate, phospho site T377 (protein, UniProt Q5U2R4 36-414, looked up)
tRNA methyltransferase 10 …: VSSKVPSLPCHNKDSTSPPEQLELDGWKTTMKSSIQENGVSVVSDKDEDSLAATRELIEMWRLLGKEVPEHITEEELKTLMECASKSAKKKYLRYLYGKEMMKKAKQMKKEMKAAAREEAKRARSLEPSTGEEQRDFMFLRLWDRQTNIALGWKGVQAMQFGQPLVFDMAYDNYMKPSELQNTVSQLLESEGWNRRNVDPFHIYFCNLEVDGAYHRELVKRYGEKWDKLLLTATEKSPVDLFPKDSIIYLTADSPNVMTTFKHDKIYIIGSFVDKNTQTGTSLAKAKRQNLATECLPLDKYLQWDVGNKNLTLDQMIRILLCLKNTGNWEEALKFVPRRKHTGYLEVPEHSQAAFRKLKKTKTLNSFRKGSLNVHMWKR
modifications: phosphorylated at T377

These molecules were tested on PKGIα (analogue-sensitive C42S/M438G), cGMP-activated (assay: Chemical genetic phosphoproteomic screen, cGMP-activated PKGIα C42S/M438G versus unactivated control). Details: PKGIα C42S/M438G + 100 μM cGMP vs basal; 1 h, 30 °C, pH 7.5, rat heart homogenate; label-free LC–MS/MS; n=4; * P<0.05 Dunnett: all values except phospholamban S16.
Format: biochemical, human PKGIα; substrates in rat heart homogenate
Description: (§1) We employed a chemical genetic method[18] to identify direct substrates of cGMP-activated PKGIα and disulfide bond-activated PKGIα in heart tissue. This method involves mutation of the ATP binding-site of the kinase of interest so that it can accept a ‘bulky' N6-alkylated ATP analogue for example, N6^−phenylethyl ATP. An oxygen atom on the γ phosphate is also replaced with a sulfur atom—giving an N6-alkylated ATPγS analogue—so that the mutant kinase catalyses the transfer of a thiophosphate group (–PO3S^3−) to its substrates instead of a phosphate. The thiophosphate group is nucleophilic, providing a basis for substrates of the analogue-sensitive kinase to be purified by a ‘covalent capture' protocol. LC–MS/MS allows identification of the substrate and localization of the phosphorylation site. Thiophosphorylated proteins can also be detected with a thiophosphate ester-specific antibody. Analogue-sensitive mutants of PKGIα and PKGIα C42S (which cannot form the activating intermolecular disulfide bond) were generated by mutating Met438 in the ATP-binding domain to Gly. This mutation was chosen based on a previous study where an analogue-sensitive mutant of the catalytic subunit of PKA—which shares sequence homology with PKGIα—was engineered. Detailed protocols are given below.
(§2) A pCDNA3 expression vector encoding human FLAG-tagged PKGIα (ref. [41]) underwent site-directed mutagenesis to generate constructs for untagged WT, C42S, M438G and C42S/M438G PKGIα. Mutations were introduced using the QuikChange II Site-Directed Mutagenesis Kit (Agilent) according to the manufacturer's instructions. Expression and purification of the PKGIα mutants was performed according to a published method[42] as follows: suspension FreeStyle 293-F cells (ThermoFisher Scientific) were transfected with the appropriate PKGIα construct using the stable cationic polymer polyethyleneimine (PEI) as a transfection reagent. After ∼72 h cells were harvested by centrifugation (400g; room temperature; 15 min), re-suspended in ice cold lysis buffer (25 mM sodium phosphate buffer pH 6.8; 10 mM ethylenediaminetetraacetic acid (EDTA); 100 mM NaCl; 10 mM benzamidine hydrochloride; and 10 mM dithiothreitol (DTT)) and frozen in liquid N2. Cells were lysed by three freeze (liquid N2)-thaw (37 °C) cycles and the lysate was clarified by centrifugation at 140,000g and 4 °C for 30 min. The soluble protein fraction was loaded onto a pre-equilibrated 8-(2-aminoethylamino)adenosine-3′, 5′-cyclic monophosphate column (8-AEA-cAMP agarose; BioLog, Germany) followed by washing with 20 column volumes of lysis buffer. The column was further washed with lysis buffer +3 M NaCl (5 column volumes) and PKGIα was then eluted with lysis buffer +150 mM NaCl and 500 μM cAMP. Removal of cAMP and buffer exchange was achieved by extensive dialysis against 25 mM sodium phosphate buffer pH 6.8, 2 mM EDTA and 100 mM NaCl. For ITC analysis, WT PKGIα was incubated with 10 mM lipoic acid for 2 h on ice to obtain ∼100% disulfide dimer (confirmed by SDS-PAGE). Oxidized WT or C42S PKGIα was further purified by size exclusion chromatography using a HiLoad 16/600 Superdex 200 pg column (GE Healthcare) with 50 mM sodium phosphate buffer pH 7.4 and 100 mM NaCl. Proteins were concentrated using Amicon Ultra centrifugal filter devices (Merck Millipore). DTT was absent in storage buffers so that the activating disulfide bond would not be reduced and so that the PKGIα M438G mutant would be oxidized to disulfide dimer in the presence of air (confirmed by SDS-PAGE). Protein concentration was determined by Pierce BCA assay (ThermoFisher) and enzyme activity was confirmed using the Omnia kinase assay kit (ThermoFisher).
(§3) Male Wistar rats (9–10 weeks; body weight 300–330 g) were euthanized by intraperitoneal injection of sodium pentobarbitone (200 mg kg^−1) with heparin (500 USP units). […]
In the case of B1, the “Log2 fold change in phosphorylation, cGMP versus control” value (shortened to “Log2 fold change … cGMP versus control”) is reported as 3.69*. For B2, the “Log2 fold change … cGMP versus control” value was 3.58*. For B3, the “Log2 fold change … cGMP versus control” value was 4.57*. In the case of B4, the “Log2 fold change … cGMP versus control” value is reported as 1.98*.

These molecules were tested on PKGIα (analogue-sensitive M438G), disulfide-activated (assay: Chemical genetic phosphoproteomic screen, disulfide-activated PKGIα M438G versus unactivated control). Details: disulfide-activated PKGIα M438G vs basal; 1 h, 30 °C, pH 7.5, rat heart homogenate; label-free LC–MS/MS; n=4; * P<0.05 Dunnett: only phospholamban S16.
Format: biochemical, human PKGIα; substrates in rat heart homogenate
Description: as §1, §2, §3
In the case of B1, the “Log2 fold change in phosphorylation, Disulfide versus control” value is reported as 1.73. For B2, the “Log2 fold change in phosphorylation, Disulfide versus control” value was 1.38. B3 was tested, and the “Log2 fold change in phosphorylation, Disulfide versus control” value was 0.77. With B4 the “Log2 fold change in phosphorylation, Disulfide versus control” value was 0.45.

Source: article PMC5095173, “Disulfide-activated protein kinase G Iα regulates cardiac diastolic relaxation and fine-tunes the Frank–Starling response” (Nature Communications, 2016)
